No end group written: not given here.
Experiment: In vivo half-life assay, serum OCN after intraperitoneal injection in Bglap-/- mice
Parameters: species or system mouse
Details: for serum OCN / in vivo half-life / % OCN from initial (relative to maximum at 30 min) / % OCN from initial, mean used for 1/2 life: 40 ng/g i.p.; for serum OCN: ELISA; for in vivo half-life: estimated from declining phase after maximum at 30 min, serum ELISA; for % OCN from initial (relative to maximum at 30 min) / % OCN from initial, mean used for 1/2 life: serum, fasted Bglap-/- mice
Procedure: For in vivo half-life assay, Bglap-/- male mice were injected intraperitoneally with 40 or 80 ng/g of body weight of mouse O-glycosylated ucOCN or non-glycosylated ucOCN, serum OCN level was analyzed at indicated time points using total mouse OCN ELISA. In all ex vivo and in vivo studies, mouse or human proteins were prepared in saline solution (0.9% NaCl) containing BSA (35 mg/ml) as a carrier.

## ucOCN: Non-glycosylated uncarboxylated mouse osteocalcin produced in bacteria (YLGASVPSPDPLEPTREQCELNPACDELSDQYGLKTAYKRIYGITI; ends and bridges not checked; cysteine pairing not given here; UniProt P86546 50-95, looked up)
Bglap-/- male mice fasted 16 hr, 15 min, mouse 1
  serum OCN: 21.6 ng/mL
Bglap-/- male mice fasted 16 hr, 15 min, mouse 2
  serum OCN: 16.5 ng/mL
Bglap-/- male mice fasted 16 hr, 15 min, mouse 3
  serum OCN: 22.3 ng/mL
Bglap-/- male mice fasted 16 hr, 15 min, mouse 4
  serum OCN: 21.8 ng/mL
Bglap-/- male mice fasted 16 hr, 30 min, mouse 1
  serum OCN: 29.0 ng/mL
Bglap-/- male mice fasted 16 hr, 30 min, mouse 2
  serum OCN: 18.8 ng/mL
Bglap-/- male mice fasted 16 hr, 30 min, mouse 3
  serum OCN: 19.1 ng/mL
Bglap-/- male mice fasted 16 hr, 30 min, mouse 4
  serum OCN: 16.7 ng/mL
Bglap-/- male mice fasted 16 hr, 60 min, mouse 1
  serum OCN: 21.9 ng/mL
Bglap-/- male mice fasted 16 hr, 60 min, mouse 2
  serum OCN: 14.4 ng/mL
Bglap-/- male mice fasted 16 hr, 60 min, mouse 3
  serum OCN: 15.0 ng/mL
Bglap-/- male mice fasted 16 hr, 60 min, mouse 4
  serum OCN: 14.8 ng/mL
Bglap-/- male mice fasted 16 hr, 90 min, mouse 1
  serum OCN: 15.6 ng/mL
Bglap-/- male mice fasted 16 hr, 90 min, mouse 2
  serum OCN: 12.2 ng/mL
Bglap-/- male mice fasted 16 hr, 90 min, mouse 3
  serum OCN: 12.9 ng/mL
Bglap-/- male mice fasted 16 hr, 90 min, mouse 4
  serum OCN: 13.2 ng/mL
Bglap-/- male mice fasted 16 hr, 120 min, mouse 1
  serum OCN: 11.8 ng/mL
Bglap-/- male mice fasted 16 hr, 120 min, mouse 2
  serum OCN: 10.3 ng/mL
Bglap-/- male mice fasted 16 hr, 120 min, mouse 3
  serum OCN: 10.8 ng/mL
Bglap-/- male mice fasted 16 hr, 120 min, mouse 4
  serum OCN: 12.0 ng/mL
Bglap-/- male mice fasted 16 hr
  in vivo half-life: 108 min
Bglap-/- male mice fasted 16 hr, listed as non-glycosylated ucOCN
  in vivo half-life: ~ 108 min
Fed Bglap-/- male mice, 15 min, mouse 1
  serum OCN: 39.8 ng/mL
Fed Bglap-/- male mice, 15 min, mouse 2
  serum OCN: 45.5 ng/mL
Fed Bglap-/- male mice, 15 min, mouse 3
  serum OCN: 45.6 ng/mL
Fed Bglap-/- male mice, 15 min, mouse 4
  serum OCN: 45.1 ng/mL
Fed Bglap-/- male mice, 15 min, mouse 5
  serum OCN: 35.2 ng/mL
Fed Bglap-/- male mice, 15 min, mouse 6
  serum OCN: 29.7 ng/mL
Fed Bglap-/- male mice, 15 min, mouse 7
  serum OCN: 14.2 ng/mL
Fed Bglap-/- male mice, 15 min, mouse 8
  serum OCN: 30.7 ng/mL
Fed Bglap-/- male mice, 15 min, mouse 9
  serum OCN: 21.4 ng/mL
Fed Bglap-/- male mice, 30 min, mouse 1
  serum OCN: 67.5 ng/mL
Fed Bglap-/- male mice, 30 min, mouse 2
  serum OCN: 58.2 ng/mL
Fed Bglap-/- male mice, 30 min, mouse 3
  serum OCN: 51.8 ng/mL
Fed Bglap-/- male mice, 30 min, mouse 4
  serum OCN: 52.9 ng/mL
Fed Bglap-/- male mice, 30 min, mouse 5
  serum OCN: 43.5 ng/mL
Fed Bglap-/- male mice, 30 min, mouse 6
  serum OCN: 27.8 ng/mL
Fed Bglap-/- male mice, 30 min, mouse 7
  serum OCN: 13.8 ng/mL
Fed Bglap-/- male mice, 30 min, mouse 8
  serum OCN: 34.7 ng/mL
Fed Bglap-/- male mice, 30 min, mouse 9
  serum OCN: 14.9 ng/mL
Fed Bglap-/- male mice, 60 min, mouse 1
  serum OCN: 46.1 ng/mL
Fed Bglap-/- male mice, 60 min, mouse 2
  serum OCN: 20.7 ng/mL
Fed Bglap-/- male mice, 60 min, mouse 3
  serum OCN: 25.4 ng/mL
Fed Bglap-/- male mice, 60 min, mouse 4
  serum OCN: 25.6 ng/mL
Fed Bglap-/- male mice, 60 min, mouse 5
  serum OCN: 15.8 ng/mL
Fed Bglap-/- male mice, 60 min, mouse 6
  serum OCN: 8.8 ng/mL
Fed Bglap-/- male mice, 60 min, mouse 7
  serum OCN: 7.2 ng/mL
Fed Bglap-/- male mice, 60 min, mouse 8
  serum OCN: 10.7 ng/mL
Fed Bglap-/- male mice, 60 min, mouse 9
  serum OCN: 5.7 ng/mL
Fed Bglap-/- male mice, 90 min, mouse 1
  serum OCN: 16.3 ng/mL
Fed Bglap-/- male mice, 90 min, mouse 2
  serum OCN: 7.1 ng/mL
Fed Bglap-/- male mice, 90 min, mouse 3
  serum OCN: 9.0 ng/mL
Fed Bglap-/- male mice, 90 min, mouse 4
  serum OCN: 10.0 ng/mL
Fed Bglap-/- male mice, 90 min, mouse 5
  serum OCN: 6.0 ng/mL
Fed Bglap-/- male mice, 90 min, mouse 6
  serum OCN: 4.4 ng/mL
Fed Bglap-/- male mice, 90 min, mouse 7
  serum OCN: 4.7 ng/mL
Fed Bglap-/- male mice, 90 min, mouse 8
  serum OCN: 5.4 ng/mL
Fed Bglap-/- male mice, 90 min, mouse 9
  serum OCN: 4.0 ng/mL
Fed Bglap-/- male mice, 120 min, mouse 1
  serum OCN: 8.1 ng/mL
Fed Bglap-/- male mice, 120 min, mouse 2
  serum OCN: 4.4 ng/mL
Fed Bglap-/- male mice, 120 min, mouse 3
  serum OCN: 5.4 ng/mL
Fed Bglap-/- male mice, 120 min, mouse 4
  serum OCN: 6.0 ng/mL
Fed Bglap-/- male mice, 120 min, mouse 5
  serum OCN: 4.2 ng/mL
Fed Bglap-/- male mice, 120 min, mouse 6
  serum OCN: 3.7 ng/mL
Fed Bglap-/- male mice, 120 min, mouse 7
  serum OCN: 3.8 ng/mL
Fed Bglap-/- male mice, 120 min, mouse 8
  serum OCN: 4.1 ng/mL
Fed Bglap-/- male mice, 120 min, mouse 9
  serum OCN: 3.6 ng/mL
Fed Bglap-/- male mice, 180 min, mouse 1
  serum OCN: 1.9 ng/mL
Fed Bglap-/- male mice, 180 min, mouse 2
  serum OCN: 2.1 ng/mL
Fed Bglap-/- male mice, 180 min, mouse 3
  serum OCN: 1.8 ng/mL
Fed Bglap-/- male mice, 180 min, mouse 4
  serum OCN: 1.6 ng/mL
Fed Bglap-/- male mice, 180 min, mouse 5
  serum OCN: 3.4 ng/mL
Fed Bglap-/- male mice, 180 min, mouse 6
  serum OCN: 3.4 ng/mL
Fed Bglap-/- male mice, 180 min, mouse 7
  serum OCN: 3.4 ng/mL
Fed Bglap-/- male mice, 180 min, mouse 8
  serum OCN: 3.6 ng/mL
Fed Bglap-/- male mice, 180 min, mouse 9
  serum OCN: 3.4 ng/mL
Fed Bglap-/- male mice, dose 40 ng/g i.p., mouse 1
  Serum OCN at 120 minutes: 8.1 ng/mL
Fed Bglap-/- male mice, dose 40 ng/g i.p., mouse 2
  Serum OCN at 120 minutes: 4.4 ng/mL
Fed Bglap-/- male mice, dose 40 ng/g i.p., mouse 3
  Serum OCN at 120 minutes: 5.4 ng/mL
Fed Bglap-/- male mice, dose 40 ng/g i.p., mouse 4
  Serum OCN at 120 minutes: 6 ng/mL
Fed Bglap-/- male mice, dose 80 ng/g i.p., mouse 1
  Serum OCN at 120 minutes: 6.9 ng/mL
Fed Bglap-/- male mice, dose 80 ng/g i.p., mouse 2
  Serum OCN at 120 minutes: 5.7 ng/mL
Fed Bglap-/- male mice, dose 80 ng/g i.p., mouse 3
  Serum OCN at 120 minutes: 13 ng/mL
30 min, mouse 1
  % OCN from initial (relative to maximum at 30 min): 100.0%
30 min, mouse 2
  % OCN from initial (relative to maximum at 30 min): 100.0%
30 min, mouse 3
  % OCN from initial (relative to maximum at 30 min): 100.0%
30 min, mouse 4
  % OCN from initial (relative to maximum at 30 min): 100.0%
60 min, mouse 1
  % OCN from initial (relative to maximum at 30 min): 75.4%
60 min, mouse 2
  % OCN from initial (relative to maximum at 30 min): 76.8%
60 min, mouse 3
  % OCN from initial (relative to maximum at 30 min): 78.6%
60 min, mouse 4
  % OCN from initial (relative to maximum at 30 min): 88.7%
90 min, mouse 1
  % OCN from initial (relative to maximum at 30 min): 53.9%
90 min, mouse 2
  % OCN from initial (relative to maximum at 30 min): 65.1%
90 min, mouse 3
  % OCN from initial (relative to maximum at 30 min): 67.6%
90 min, mouse 4
  % OCN from initial (relative to maximum at 30 min): 78.8%
120 min, mouse 1
  % OCN from initial (relative to maximum at 30 min): 40.6%
120 min, mouse 2
  % OCN from initial (relative to maximum at 30 min): 54.6%
120 min, mouse 3
  % OCN from initial (relative to maximum at 30 min): 56.7%
120 min, mouse 4
  % OCN from initial (relative to maximum at 30 min): 71.4%
Time 0 min of declining phase
  % OCN from initial, mean used for 1/2 life: 100.0%
Time 30 min of declining phase
  % OCN from initial, mean used for 1/2 life: 79.9%
Time 60 min of declining phase
  % OCN from initial, mean used for 1/2 life: 66.3%
Time 90 min of declining phase
  % OCN from initial, mean used for 1/2 life: 55.8%
